Test results published in patent US20210163606A1 (ATYR PHARMA, published 2021).
Residue numbers refer to the chain shown, from its start. One block for each binder: values may come before it.

Columns and labels:
[1] = molecular target: T1, human NRP2 variant 2 (hNRP2), untagged, on Expi293 cells (Human, UniProt O60462 23-931); test: flow cytometry as described for Table E1 (Expi293-hNRP2 cells); the cells for this surrogate are not said separately
T1 construct: Transcript NM_003872 / NP_003863.2; also called Expi293-hNRP2 clonal cells; Human NRP2a (version 2)
T1 sequence: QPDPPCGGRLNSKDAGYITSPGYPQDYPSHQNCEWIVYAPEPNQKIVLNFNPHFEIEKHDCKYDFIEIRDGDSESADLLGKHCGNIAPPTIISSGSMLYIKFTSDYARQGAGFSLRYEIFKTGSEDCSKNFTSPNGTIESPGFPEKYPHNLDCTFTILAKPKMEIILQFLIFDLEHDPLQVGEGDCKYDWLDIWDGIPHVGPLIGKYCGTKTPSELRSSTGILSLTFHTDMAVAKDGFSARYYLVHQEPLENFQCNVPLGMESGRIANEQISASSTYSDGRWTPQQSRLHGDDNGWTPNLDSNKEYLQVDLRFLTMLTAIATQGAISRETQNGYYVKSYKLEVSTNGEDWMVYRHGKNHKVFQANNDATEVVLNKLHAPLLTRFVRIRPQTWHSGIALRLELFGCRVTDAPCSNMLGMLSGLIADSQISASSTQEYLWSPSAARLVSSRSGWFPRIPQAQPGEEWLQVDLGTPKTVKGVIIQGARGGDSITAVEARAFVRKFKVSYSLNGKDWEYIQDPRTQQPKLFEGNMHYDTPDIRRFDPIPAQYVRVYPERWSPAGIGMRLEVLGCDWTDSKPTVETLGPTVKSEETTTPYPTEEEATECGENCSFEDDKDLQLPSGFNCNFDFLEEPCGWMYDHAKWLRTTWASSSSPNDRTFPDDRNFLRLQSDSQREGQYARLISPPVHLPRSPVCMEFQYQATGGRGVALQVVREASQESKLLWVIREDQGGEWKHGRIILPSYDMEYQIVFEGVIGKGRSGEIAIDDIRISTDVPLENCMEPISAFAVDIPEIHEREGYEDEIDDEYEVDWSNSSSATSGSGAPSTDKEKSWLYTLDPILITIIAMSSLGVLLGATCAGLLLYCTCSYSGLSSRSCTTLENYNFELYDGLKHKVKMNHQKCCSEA

[2] = molecular target: T1, human NRP2 variant 2 (hNRP2), untagged, …; test: flow cytometry on Expi293-hNRP2 clonal cells
Method: Expi293-hNRP2 clonal cells were collected by centrifugation at 300 g for 5 minutes, and washed twice by DPBS (with calcium and magnesium, ThermoFisher Cat #14040133). Washed cells were added to a 96-well V-bottom plate (ThermoFisher Cat #1424572) at 100,000 cells/well in […] of DPBS added with Zombie Violet viability stain (Biolegend Cat #423114, diluted at 1:500). From this step on, cells were protected from light. Cells were kept at room temperature for 10 min and pelleted down at 300 g for 5 minutes at 4° C. Supernatants containing Zombie Violet were discarded, and without washing, 30 uL of antibodies diluted in the flow wash buffer (FWB, DPBS plus 2% FBS and 0.1% sodium azide to inhibit receptor internalization) were added to the cells. For anti-NRP2 antibody staining on Expi293-hNRP2 clonal cells, in-house human anti-NRP2 antibodies were tested at final concentrations of 0.006-100 nM at 4-fold dilutions. […] Binding was allowed to proceed on ice for 40-60 minutes. Cells were then pelleted at 300 g for 5 minutes at 4° C., supernatants removed, and cells washed twice by adding 150 μL of FWB and centrifuging the cells again in the same conditions. To detect a-NRP2 binding on the cell surface, Cy3-conjugated goat anti-human IgG Fc (Jackson ImmunoResearch Cat #109165098) was added to the cells at a final concentration of 3 μg/mL in 30 μL of FWB. After 30-40 minutes of incubation on ice, cells were pelleted at 300 g for 5 minutes at 4° C. and supernatants removed, and the cells were washed twice as described previously. Cells were then resuspended in FWB before acquisition on the Cytoflex. Gains were set based on staining controls. Cells were collected with typically more than 10,000 events. Cells were then analyzed on FlowJo analysis software by excluding dead cells and gating singlets. The statistical analysis was performed using GraphPad Prism. A four-parameter variable-slope curve was fitted to the data ([agonist] vs. response) using non-linear regression, and the EC₅₀ and r2 for each curve was determined.
The EC₅₀ of four anti-NRP2 antibodies directed against different domains of NRP2, were measured for binding to Expi293-hNRP2 clonal cells (see Table E1 and FIG. 3).

[3] = molecular target: T2, Cynomolgus NRP2 (aa23-854) with C-terminal Fc-tag (cynomolgus monkey); test: SPR (ProteOn XPR36), antibody captured on anti-human Fab-kappa, cyno NRP2-Fc as analyte, bivalent analyte fit
T2 construct: range 23-854; sensorgrams fitted to a bivalent analyte model; also called Cynomolgus NRP2 antigen protein
Method: Anti-NRP2 antibody binding and affinity measurements. […] SPR experiments were conducted on a Bio-Rad ProteOn XPR36 Protein Interaction Array instrument. Biotinylated anti-human antibody (ThermoFisher Cat #7103302100) was immobilized on ProteOn NLC sensor chips. Anti-NRP2 antibodies were subsequently flowed over and captured by the anti-human antibody. Cynomolgus NRP2 antigen protein was flowed over the captured antibody at varying concentrations (150, 50, 16.67, 5.56, 1.85 nM). The sensor chip surface was regenerated between each analyte run to remove anti-NRP2 antibodies and NRP2 protein. Data was double referenced against a surface with no anti-NRP2 antibody captured (immobilized anti-human antibody only) and a buffer only blank. Affinity constants were derived by globally fitting sensograms to a bivalent analyte interaction model in the ProteOn manager software. For each anti-NRP2 antibody, data from the multiple NRP2 concentrations was fit as a single data set with dissociation rate constant (kd), association rate constant (kₐ) and Rₘₐₓ values as global parameters. The reported binding affinity is the equilibrium dissociation constant (KD) calculated from kd/kₐ. [0681] Running buffer: 50 mM HEPES, 300 mM NaCl, 5 mM CaCl₂, 0.005% Tween-20, pH 7.4 [0682] Immobilized antibody: CaptureSelect Human Fab-kappa Kinetics Biotin Conjugate, Thermo Fisher Cat #7103302100 [0683] Antigen: Cynomolgus NRP2 (aa23-854) with C-terminal Fc-tag [0684] Regeneration buffer: 10 mM glycine pH 2.0

[4] = molecular target: T3, cynomolgus monkey NRP2 on transfected Expi293 cells (cynomolgus monkey); test: flow cytometry on Cyno NRP2-transfected Expi293 cells
T3 construct: whole, on cells; Plasmid bought from Origene; transient transfection; also called Cyno NRP2
Method: Binding of a-NRP2 to cynomolgus monkey NRP2-transfected Expi293 cells. Cynomolgus monkey (cyno) NRP2-transfected Expi293 cells were collected by centrifugation at 300 g for 5 minutes, and washed twice by DPBS (with calcium and magnesium, ThermoFisher Cat #14040133).
Washed cells were added to a 96-well V-bottom plate (ThermoFisher Cat #1424572) at 100,000 cells/well in 50 μL of DPBS added with Zombie Violet viability stain (Biolegend Cat #423114, diluted at 1:500). From this step on, cells were protected from light. Cells were kept at room temperature for 10 min and pelleted down at 300 g for 5 minutes at 4° C. Supernatants containing Zombie Violet were discarded, and without washing, 30 uL of antibodies diluted in the flow wash buffer (FWB, DPBS plus 2% FBS and 0.1% sodium azide to inhibit receptor internalization) were added to the cells. For a-NRP2 staining on Cyno NRP2-transfected Expi293 cells, in-house human anti-NRP2 antibodies were tested at final concentrations of 0.006-100 nM at 4-fold dilutions. For each test, NRP2 over-expression on the cell surface was validated by a-NRP2 staining (10 μg/mL R&D #AF567 a-NRP2) in separate wells. Binding was allowed to proceed on ice for 40-60 minutes. Cells were then pelleted at 300 g for 5 minutes at 4° C., supernatants removed, and cells washed twice by adding 150 μL of FWB and centrifuging the cells again in the same conditions. To detect a-NRP2 binding on the cell surface, Cy3-conjugated goat anti-human IgG Fc or AF647-conjugated donkey anti-goat IgG (Jackson ImmunoResearch Cat #109165098 & 705605147) was added to the cells at a final concentration of 3 μg/mL in 30 μL of FWB. After 30-40 minutes of incubation on ice, cells were pelleted at 300 g for 5 minutes at 4° C. and supernatants removed, and the cells were washed twice as described previously. […] Cells were then analyzed on FlowJo analysis software by excluding dead cells and gating singlets.
The EC₅₀ of three anti-NRP2 antibodies, each against a distinct domain of NRP2, were measured for binding to Cyno NRP2-transfected Expi293 cells (see Table E2 and FIG. 4).

B1: aNRP2-28v2/4 (antibody, V domains shown)
VH: QSVKESEGGLFKPTDTLTLTCTVSGFSLSTYSISWVRQAPGNGLEWIGIIGDAGGIIYATWAKSRSTITRSTALNTVTLKMTGLTAADTATYFCARDGTAFDIWGPGTLVTVSS
VL: AYDMTQTPASVEVVVGGTVTIKCQASQSIYSKLGWYQQKPGQPPKLLIYRASTLASGVSSRFKGSGSGTEYTLTISGVQCDDAATYYCQQDYSYINVDNIFGGGTEVVVK
notes: Mouse surrogate antibody; also called aNRP2-28v4
EC50 [1]: 1.58 nM

B2: aNRP2-14v9 (antibody, V domains shown)
VH: QLQLVESGGGVVQPGRSLRLSCTVSGFSLTSYGVHWVRQAPGKGLEWVGLIWSGGSTDYSPAFISRFTISEDNSKSTVYLQMNSLRAEDTAVYFCARNSYSSGYYAMDYWGQGTTVTVSS
VL: DIQLTQSPSFLSASVGDRVTITCKASQNVGHAVAWYQQKPGKAPKLLIYSASNRYTGVPSRFSGSGSGTEFTLTISSLQPEDFATYYCQQYSRYPPYTFGGGTKVEIK
EC50 [2]: 1.2 nM
Kd [3]: 0.017 nM
EC50 [4]: 2.8 nM

Next, values leading:

EC50 [2]: 47.5 nM
B3: aNRP2-14v10 (antibody, V domains shown)
VH: B2 VH
VL: B2 VL with H31T, Y91R

EC50 [2]: 6.3 nM
Kd [3]: 12 nM
EC50 [4]: 5.7 nM
B4: aNRP2-11v7 (antibody, V domains shown)
VH: QVQLVQSGAEVKKPGASVKVSCKASGYTFTSFGISWVRQAPGQGLEWIGEIYPRSGNTYYNENFKGRATMTADKSTSTAYMELRSLRSDDTAVYYCARSSGYYGSTPFPYWGQGTLVTVSS
VL: DIQMTQSPSSLSASVGDRVTITCRASQDISNYLNWYQQKPGKAVKLLIYYTSRLHSGVPSRFSGSGSGTDYTFTISSLQPEDIATYYCQQGNTLPWTFGGGTKVEIK
notes: also called aNRP22-11v7

EC50 [2]: 0.65 nM
B5: aNRP2-10v13 (antibody, V domains shown)
VH: EVQLVQSGAEVKKPGATVKISCKVSGFNIKDYYVHWVQQAPGKGLEWMGRIDVHDDETKYAPKFQGRVTITADTSTDTAYMELSSLRSEDTAVYYCATPIYGAREAWFAYWGQGTLVTVSS
VL: DIQMTQSPSSLSASVGDRVTITCTASSSVSSSYLHWYQQKPGKAPKLLIYRTSNLASGVPSRFSGSGSGTDFTLTISSLQPEDFATYYCHQYYRSPPTFGGGTKVEIK
